Assay results from US20120316107A1 (CASE WESTERN RESERVE UNIVERSITY, published 2012).
Numbering of substitutions follows the chain as printed. Where no end group is shown, it is not given here.

B1: single chain insulin (SCI) that is wild type at position B10 (His^A8, Asp^B28, Pro^B29) (ligand)
chain: FVNQHLCGSHLVEALYLVCGERGFFYTDPTGGGPRRGIVEQCCHSICSLYQLENYCN
notes: also called A8-His, B28-Asp, B29-Pro SCI; SCI not containing the Asp^B10 substitution
B2: 57 mer single-chain insulin analogue (His^A8, Asp^B10, Asp^B28, Pro^B29; GGGPRR linker) (ligand)
chain: B1 chain with H10D
modifications: ends and bridges not checked; cysteine pairing not given here
notes: also called 57mer single-chain analogue; 57-mer single-chain Analog

What was measured:
[1] = target: T1, Insulin-like Growth Factor receptor (UniProt P08069 31-1367, limits assumed); assay: competitive displacement of 125I-IGF-1 from IGFR
T1 construct: Captured on antibody-coated microtiter plates; the construct is not described; also called IGFR; IGF Type I receptor

[2] = target: T1, Insulin-like Growth Factor receptor; assay: competitive displacement of labelled ligand, receptor captured on anti-FLAG IgG plate, two-site sequential model
Method: DNA for transfection was prepared according to the method of Mynarcik et al. (J. Biol. Chem., 1997, 272, pp 18650-18655). The receptor cDNAs were expressed transiently in PEAK rapid cells using polyethyleneimine. Cells were harvested by lysis in 0.15M NaCl and 0.1M Tris (pH 8) containing 1% (v/v) Triton X-100 and protease inhibitor cocktail three days post-transfection. Lysates were stored at −80° C. until assay. Receptor-binding assays were performed as described by Mynarcik. Microtiter strip plates (Nunc Maxisorb) were incubated overnight at 4° C. with anti-FLAG IgG ([…] in PBS). Washing, blocking, receptor binding and competitive binding assays with labeled and unlabeled peptides were performed as described.

| Binder | Kd [1] | Kd [2] |
| --- | --- | --- |
| B1 | 27.6 nM | 27.6 nM |
| B2 |  | 9.89 nM |
